Measurements: US5747660A, “Nucleic acid encoding prostaglandin F2α receptor regulatory protein” (priority 1995, dated 1998)
Several values for one entry are separate records, joined by “and”; a condition that tells them apart may be missing. Equal values may be shown once. Read-outs that look alike come from different tables or passages of the source.

Tests used:
[1] = test system: prostaglandin F2α receptor (FP); test: Effect of intracellular messenger altering agents on [3H]PGF2α binding and on FPRP inhibition of it; assay type: cell-based
Method: In a third experiment, transfected cells were treated for 30 min with exposure to the following: phorbol 12-myristate 13-acetate 10^-8 M, prostaglandin E1, 10^-7 M, A23187 10^-6 M, okadaic acid 10^-6 M, or 8-Br-cAMP 10^-5 M (Table 4).
The effect of brefeldin A (3 μg/ml, 2 hr), chloroquine (100 μM, 6 hr) and tunicamysin (2.5 μg/ml, 20 hr) was determined.

[2] = molecular target: prostaglandin F2α receptor (FP)
Method: [^3 H]PGF2α binding (DPM) was normalized to the average quantity of protein per culture dish (65 μg), and plotted against unlabeled PGF2α concentration.
For [^3 H]PGF2α binding experiments, the above electroporated cells were divided equally and cultured in six 35×10 mm culture dishes with 1.5 ml culture media each. […] Briefly, media was removed from the culture dishes, the dishes were washed 4 times in 1 L each of phosphate buffered saline (PBS, 10 mM phosphate), 150 mM NaCl, pH 7.0), and 0.35 ml of binding buffer (1×Hanks, 0.1% BSA, 2 mM MnCl2, 0.5 mM CaCl2, pH 6.0) containing either 2×10^-9 M [^3 H]PGF2α (total binding) or 2×10^-9 M [^3 H]PGF2α plus 2×10^-6 M unlabelled PGF2α (non-specific binding). The binding incubation was at 37° for 20 minutes. Following incubation, the binding buffer was removed, the dishes were washed 4 times in 1 L each of PBS, then 0.5 ml of 1.0M NaOH was added to each dish. Dishes were then incubated overnight at 37° C., the NaOH solution removed, neutralized with 0.5 ml of 1M HCL (made with 200 mM phosphate buffer pH 7.4), vortexed, and aliquots were analyzed for protein by the Bradford technique (1976) Anal. Biochem. 72:248-252, or analyzed for ^3 H content with a Beckman 6000 TA liquid scintillation counter (using Aquasol-2, New England Nuclear, Boston, Mass.; approximate counting efficiency 50-55%).
Saturation binding. A saturation binding experiment was performed to examine the effect of FPRP on FP. Scatchard analysis should discriminate between competitive and noncompetitive methods of FPRP action. [^3 H]PGF2α binding was assessed following transfection with either FP+pSG5 or FP+anti-sense FPRP (2 controls) and following transfection with FP+FPRP or FP+ dss FPRP (2 experimentals). Data are shown in FIG. 9A for unlabelled PGF2α inhibition of [^3 H]PGF2α binding and in FIG. 9B for the Scatchard transformation of this same data.

[3] = molecular target: prostaglandin F2α receptor (FP); conditions: literature value; read-out: [^3 H]PGF2α binding affinity reported by Ito et al. (1994); cited from earlier work
[4] = molecular target: prostaglandin F2α receptor (FP), cDNA construct whose species the place does not tell
[5] = molecular target: prostaglandin F2α receptor (FP), cDNA construct whose species the place does not tell; remark: listed apart in the source
[6] = test system: prostaglandin F2α receptor (FP); test: [3H]PGF2α binding in COS cells co-transfected with FP and an FPRP variant construct; conditions: 3.5 μg FP cDNA construct and 5 μg test cDNA construct
[7] = test system: prostaglandin F2α receptor (FP); test: [3H]PGF2α specific binding to COS cells cotransfected with FP cDNA and a test cDNA construct; assay type: cell-based, rat, mouse
[8] = test system: COS cells (endogenous specific [3H]PGF2α binding); test: [3H]PGF2α binding to COS cell cultures transfected with FPRP cDNA construct alone; assay type: cell-based; conditions: COS cells transfected with FPRP cDNA construct only, 24 h
Method: COS cells were electroporated, cultured for 24 h and analyzed for specific [^3 H]PGF2α binding. Total transfected DNA is indicated on the abscissa. Data points represent mean±standard deviation, n=3.
Methods. COS-1 cells were used for transient expression experiments. Briefly, 70-80% confluent cultures (grown in Ham's F-12 media plus 8% fetal bovine serum, with media replacement 24 hours prior to transfection)were harvested with a trypsin/EDTA solution (final concentration: 0.02% ethylenediaminetetracetic acid, 0.05% sodium bicarbonate, and 0.5% Enzart 40x trypsin), washed twice with culture media, then resuspended in ice cold culture media at approximately 1.66×10^7 cells per ml. Aliquots of 0.15 ml (2.5×10^6 cells) were placed in electroporation cuvettes (BioRad, Hercules, Calif.) along with plasmid DNA, placed on ice for 10 minutes, electroporated with a Bio Rad electroporater (settings: 250 μF, […], .infin..OMEGA., 0.4 cm cuvette), 1 ml of ice cold culture media was added and the cells were left on ice for 10 minutes before plating.
The binding incubation was at 37° for 20 minutes.

[9] = test system: prostaglandin F2α receptor (FP); remark: listed apart in the source
Method: Models for FPRP interaction with FP were tested as follows. First, a conditioned media experiment was performed with either the pSGS vector, or the FPRP cDNA construct transfected into COS cells. Following plating and culture of these transfected cells for 24 hours the media in which the cells were grown was placed on cultures of cells transfected with FP. The cells transfected with FP and cultured with the conditioned medium for 4 hours were then analyzed for [^3 H]PGF2α binding. In a second experiment, FPRP or pSG5 were transfected as described above into one set of cells, FP alone into a second set of cells, and the cells co-cultured in the ratios shown in Table 3.
Briefly, COS cells were transfected with FP, pSG5, or FPRP, and plated. 24 h post transfection, media was removed from the pSG5 and FPRP transfected cultures, centrifuged 7 min at 1000×g, and added back to the FP culture media at the indicated ratios. Following 4 h of this media treatment, [^3 H]PGF2α binding was analyzed. As a control, FP and FPRP were cotransfected. For co-cultured cells, COS cells were transfected with FP, pSG5, or FPRP, mixed at a 1:1 ratio and cultured. As a control, cells were either transfected with FP or FP+FPRP.

[10] = test system: prostaglandin F2α receptor (FP); test: Cotransfection of a third construct along with FP and FPRP, [3H]PGF2α binding; assay type: cell-based; conditions: FP + FPRP, no third construct; FP + pSG5 = 100
Text: Therefore, a strategy based on cotransfection of a third construct (along with FP and FPRP) was pursued. These third party constructs included ones coding for the protease inhibitors alpha-l trypsin inhibitor and crmA, an inhibitor of cell death, bcl2, and few nonspecific control molecules including the vitamin D receptor, a secreted immunoglobulin molecule, and the empty parent vector pSG5 only. All groups and treatments were compared with control treatment of FP+pSG5 vs. FP+FPRP.

[11] = test system: prostaglandin F2α receptor (FP); remark: listed apart in the source
Method: Cells transfected with either FP and pSG5 or FP and FPRP were plated in normal media containing serum and at either 21 h, 6 h or 0 h prior to [^3 H]PGF2α binding analysis had their media replaced with serum deficient medium, in order to obviate any effects due to hormones or factors present in the added serum.

[12] = control treatment (EtOH vehicle or Control), no agent

**Q.** What does the source list for `CCCCC[C@H](O)/C=C/[C@@H]1[C@@H](C/C=C\CCCC(=O)O)[C@@H](O)C[C@H]1O` [PGF2α, Prostaglandin F2α]?
**A.** % Control [^3 H]PGF2α Binding, FP + FPRP ([1]; FP + FPRP transfected cells treated with the agent): 40 ± 3%; % Control [^3 H]PGF2α Binding, FP + pSG5 ([1]; FP + pSG5 transfected cells treated with the agent): 73 ± 9%; effect of agent on basal [^3 H]PGF2α binding ([1]; FP transfected cells pretreated with the agent): decreased subsequent basal FP binding; % Inhibition (FPRP inhibition of [^3 H]PGF2α binding) ([1]; in presence of the agent at the concentration/time given): 45%; Kd ([2]; read-out: [^3 H]PGF2α binding affinity, FP + pSG5, asFPRP, FPRP or dssFPRP: all 4 treatments similar): 0.008 µM; Kd [3]: 0.025 µM

B1: rat prostaglandin F2α receptor regulatory protein (FPRP) (protein)
chain: RVVRVPAGTLVRVVGTELVIPCNVSDYDGPSEQNFDWSFSSSGSSFVELASTWEVGFPAQQYRERLQRGDILLRRTANDAVELHIKNVQPSDQGHYKCSTPSTDATVQGNYEDTMQVKVLADALVVGPSSRPPPGLSLREGEPFELRCIASTTSPLHTHLALRWELHRGPVHRSILALSHEGRFHPGPGYEQRYHSGDVRLDTVGSDAYRLSVARALSADQGSYRCVVSEWITEQGSWQEIQEKAVEVATVVIQPTALQLAVPRTVSVTEGKDLDLSCNITTDRVDDVRPEVTWYFKKTPDTSLLASHMLARLDRDSLVHSSPHVALSHVDTRSYHLLVRDVSKENSGYYLCLVALWAPGHNRSWHKVAEAMSAPSGVSVTWLEPEYQVYLNASKVPGFSDDPTELQCRVIDTKRVDAGVRLTVSWYYRMNRRNDDVVASELLAVMDGDWTLRYGERSKQRAQDGEFIFSKEHTDTFSFRIQRTTEEDRGSYYCVVSAWTRQRNSSWVKSKDVFSKPVNIFWASEDSVLVVKARQPKPFFAAGNTFEMTCKVSSKNIKSPRYSVLITAEKPVGDLSSPNETKYIISLDQDSVVKLENWTDASRVDGVVLEKVQEDEFRYRMYQTQVSDAGLYRCMVTAWSPIGGSLWREAATSLSNPIEIDFQTSGPIFNASVHSDTLSVTRGDLIKLFCIVTVDGAVLDPDDMAFDVSWFAVHSFGLDKAPILLSSLDRKGVVTTGQRDWKSTVSLERVSVLEFLLQVHGSEDQDFGNYYCSVTPWVRSPTGSWQREAEIHSRPIFITVKMDVLNAFKYPLLIGVGLSTVIRLLSCLIGYCSSHWCCKKEVRETRRERRRLMSMEMD
**Q.** What does the source list for B1?
**A.** % control ^3 H!PGF2α binding, co-culture of FPRP transfected cells with FP transfected cells 1:1 [4]: 120 % control; % control ^3 H!PGF2α binding, conditioned media from FPRP transfected cells on FP transfected cells [4]: 103 % control; inhibition of ^3 H!PGF2α binding, saturation binding experiment [5]: 60%; inhibitory activity of FPRP variant on [^3 H]PGF2α binding [6]: may be slightly more active at lower concentrations but does not inhibit quite as well as native FPRP (construct 232) at high concentrations

B2: FPRP: rat prostaglandin F2α receptor regulatory protein (SEQ ID NO:1), expressed from FPRP cDNA in pSG5, construct 232 (SEQ ID NO:10) (protein)
chain: MGRPAPRPLLLALLSLAVCRGRVVRVPAGTLVRVVGTELVIPCNVSDYDGPSEQNFDWSFSSSGSSFVELASTWEVGFPAQQYRERLQRGDILLRRTANDAVELHIKNVQPSDQGHYKCSTPSTDATVQGNYEDTMQVKVLADALVVGPSSRPPPGLSLREGEPFELRCIASTTSPLHTHLALRWELHRGPVHRSILALSHEGRFHPGPGYEQRYHSGDVRLDTVGSDAYRLSVARALSADQGSYRCVVSEWITEQGSWQEIQEKAVEVATVVIQPTALQLAVPRTVSVTEGKDLDLSCNITTDRVDDVRPEVTWYFKKTPDTSLLASHMLARLDRDSLVHSSPHVALSHVDTRSYHLLVRDVSKENSGYYLCLVALWAPGHNRSWHKVAEAMSAPSGVSVTWLEPEYQVYLNASKVPGFSDDPTELQCRVIDTKRVDAGVRLTVSWYYRMNRRNDDVVASELLAVMDGDWTLRYGERSKQRAQDGEFIFSKEHTDTFSFRIQRTTEEDRGSYYCVVSAWTRQRNSSWVKSKDVFSKPVNIFWASEDSVLVVKARQPKPFFAAGNTFEMTCKVSSKNIKSPRYSVLITAEKPVGDLSSPNETKYIISLDQDSVVKLENWTDASRVDGVVLEKVQEDEFRYRMYQTQVSDAGLYRCMVTAWSPIGGSLWREAATSLSNPIEIDFQTSGPIFNASVHSDTLSVTRGDLIKLFCIVTVDGAVLDPDDMAFDVSWFAVHSFGLDKAPILLSSLDRKGVVTTGQRDWKSTVSLERVSVLEFLLQVHGSEDQDFGNYYCSVTPWVRSPTGSWQREAEIHSRPIFITVKMDVLNAFKYPLLIGVGLSTVIRLLSCLIGYCSSHWCCKKEVRETRRERRRLMSMEMD
**Q.** What does the source list for B2?
**A.** % CONTROL, [^3 H]PGF2α specific binding ([7]; COS cells cotransfected with FP + the named DNA, FP alone = 100): 30-50%; inhibitory activity of FPRP on [^3 H]PGF2α binding ([7]; COS cells nearly 100% confluent, media replaced ≈48 h prior to transfection): approximately 60%; % CONTROL [^3 H]PGF2α BINDING (FPRP inhibitory activity) ([7]; Standard: 80% confluent cells, 40 μg/dish post-electroporation, binding assay at 24 h): 30-50%; % CONTROL [^3 H]PGF2α BINDING (FPRP inhibitory activity) ([7]; binding buffer of Weipz et al. (1992), pH 6.0): 53 ± 8%; % CONTROL [^3 H]PGF2α BINDING (FPRP inhibitory activity) ([7]; binding buffer: standard buffer pH 6.0): 41 ± 5%; % CONTROL [^3 H]PGF2α BINDING (FPRP inhibitory activity) ([7]; binding buffer: standard buffer pH 7.0): 45 ± 3%; effect on [^3 H]PGF2α binding to FP ([7]; cotransfection with rFP or mFP): inhibited rFP and mFP equally; % CONTROL [^3 H]PGF2α BINDING (FPRP inhibitory activity) ([7]; density of cells post-electroporation: 40 μg/dish): 40 ± 5%; % CONTROL [^3 H]PGF2α BINDING (FPRP inhibitory activity) ([7]; density of cells post-electroporation: 20-30 μg/dish): 30 ± 5%; % CONTROL [^3 H]PGF2α BINDING (FPRP inhibitory activity) ([7]; density of cells post-electroporation: 60-80 μg/dish): 43 ± 4%; % CONTROL [^3 H]PGF2α BINDING (FPRP inhibitory activity) ([7]; density of cells prior to electroporation: 60-70% confluent): 35 ± 3%; % CONTROL [^3 H]PGF2α BINDING (FPRP inhibitory activity) ([7]; density of cells prior to electroporation: 80% confluent): 40 ± 5%; % CONTROL [^3 H]PGF2α BINDING (FPRP inhibitory activity) ([7]; density of cells prior to electroporation: 100% confluent): 38 ± 4%; % CONTROL [^3 H]PGF2α BINDING (FPRP inhibitory activity) ([7]; time between electroporation and binding: 24 hr): 36 ± 3%; % CONTROL [^3 H]PGF2α BINDING (FPRP inhibitory activity) ([7]; time between electroporation and binding: 48 hr): 33 ± 3%; effect of FPRP expression on [^3 H]PGF2α binding [8]: marked, dose dependent decrease; % Control [^3 H]PGF2α Binding ([9]; FP + FPRP cotransfection pos. control of the conditioned media experiment): 43 ± 5%; % Control [^3 H]PGF2α Binding ([9]; FP + FPRP cotransfection positive control of the co-culture experiment): 45 ± 3%; % Control [^3 H]PGF2α Binding ([9]; FP cells + 1:2 media from FPRP transfection, 4 h): 103 ± 10%; % Control [^3 H]PGF2α Binding ([9]; FP cells + 1:4 media from FPRP transfection, 4 h): 112 ± 10%; % Control [^3 H]PGF2α Binding ([9]; FP cells + 1:8 media from FPRP transfection, 4 h): 113 ± 11%; % Control [^3 H]PGF2α Binding ([9]; FP transfected cells co-cultured 1:1 with FPRP transfected cells): 120 ± 10%; ability to inhibit [^3 H]PGF2α binding to FP ([9]; conditioned media or co-culture type experiments): unable to inhibit; % Control [^3 H]PGF2α Binding, FP + FPRP [1, 12]: 52 ± 3% and 37 ± 3%; % Inhibition (FPRP inhibition of [^3 H]PGF2α binding) [1, 12]: 48% and 63%; % Control [^3 H]PGF2α Binding [10]: 37 ± 5%; % Control [^3 H]PGF2α Binding ([11]; Serum Removal: t = 1 h): 38 ± 7%; % Control [^3 H]PGF2α Binding ([11]; Serum Removal: t = -6 h): 48 ± 4%; % Control [^3 H]PGF2α Binding ([11]; Serum Removal: t = -21 h): 41 ± 3%; effect of growth in serum deficient media on percent of FPRP inhibition ([11]; serum deficient medium 21 h, 6 h or 0 h prior to binding): did not alter; inhibition of [^3 H]PGF2α binding to FP ([2]; saturation binding experiment, FP + FPRP cotransfection): approximately 60%; type of inhibition of [^3 H]PGF2α binding ([2]; saturation binding, Scatchard analysis): non-competitive inhibitor; decrease of viability of the transfected cells (COS cells): 20-60%
